B1: Neutrophil cytosol factor 2, residues 456 to 514; numbered along this chain, P19878 (parent)
chain: LKKGSQVEALFSYEATQPEDLEFQEGDIILVLSKVNEEWLEGECKGKVGIFPKVFVEDC

Variants of: B1
Assay: abundance fitness (aPCA) (normalised: wild type 0, dead -1); higher = more abundant; growth selection in yeast, the domain comes from the species named
Settings: Homo sapiens

Abundance fitness: each site, then its substitutions
G26: W -0.809; K 0.016; S -0.457; M -0.103; I -0.807; T -0.881; Y -1.03; V -0.407; E -0.473; D -0.683; N -0.517; L -0.339; H -0.398; R -0.464
D27: Y -0.613; T -0.695; K -0.365; H -0.488; S -0.666; E -0.933; R -0.323; C -0.301; P -0.783; V -0.969; F -0.493; W -0.674; L -0.28; I -0.179; Q -0.212; M -0.377; A -0.142
I29: C -0.497; V -0.795; Q -0.783; G -0.365; N -0.119; T -0.497; R -0.427; P 0.271; W 0.005; E -0.392; L -0.454; M -0.686; D -0.41; H -0.595; A -0.53; S -0.374
E38: W -0.396; K -0.649; R -0.941; H -0.362; P -0.496; S -0.701; D 0.028; I -0.097; V -0.479; N -0.131; A -0.329; G -0.207; C -0.702; Y -0.266
L32: R 0.564; V -0.297; N 0.304; I -0.06; E -0.299; H 0.166; S -0.069; D -0.054; T 0.325; Q -0.143; C -0.428; M -0.532; K 0.194; A -0.297; P -0.146; Y -0.249; F -0.118
E25: D -0.9; L -0.731; N -0.015; I -0.68; G -0.201; M -0.264; S -0.239; T 0.035; H 0.447; P -0.89; K 0.711; W -0.78; V -0.043; C -0.275
F23: W -0.889; Y -0.517; A -0.333; R -0.223; Q 0.047; E -0.023; V -0.568; P -0.848; T -0.772; I -0.374; N -0.381; H -0.117; G -0.198; M -0.098; C -0.218; K -0.048; D -0.527; S -0.655
E19: K -0.723; F -0.676; V -0.443; G 0.598; S -0.229; Q -0.216; I -0.305; L 0.006; N 0.156; H -0.096; M -0.463; A -0.172; C -0.112; W -0.166; D -0.501; R -0.295; T -0.055; P -1.06
K34: M -0.326; P -0.853; D -0.026; F -0.459; A -0.359; V 0.467; N -0.287; E 0.466; I 0.456; T 0.4; Y -0.589; C -0.242; H 0.059; L -0.436; R -0.47; G -0.822; W -0.437; S -0.37; Q -0.215
N36: W -0.712; V -0.686; Y -0.754; A -0.063; K 0.093; M -0.43; C -0.761; D -0.477; L -0.968; T -0.867; G -0.103; S -0.586; R -0.963; H -0.276; F -0.446; P -1.03
W39: A -0.643; E -0.269; D -0.598; C -0.379
V31: C -0.418; R -0.581; L 0.041; G 0.001; K -0.621; P -0.046; Y -0.479; W -0.6; T -0.482; I 0.342; F -0.354; H -0.369; N -0.092
L30: F -0.147; A -0.284; I 0.032; R 0.552; M 0.08; V -0.07; H 0.448; G -0.2; E 0.042; D 0.169; T 1.05; W -0.513; P 0.04; S 0.469; Y 0.079; K 0.491; Q 0.5; N 0.756
P18: W -0.711
V35: Y -0.69; L -0.096; C -0.475; S -0.459; N -0.517; D -0.588; M -0.081; H -0.806; Q -0.302; G -0.613; T -0.808; A -0.074; F -0.264; K -0.045; R -0.235; E -1.04; W -0.019
L21: G -0.369; P -0.529; C -0.585; V -0.225; N -0.538; H -0.483; W -0.457; A -0.565; R -0.67; I -0.184; Y -0.721; M -0.509; T -0.392; S -0.522; D -0.323
D20: K -0.683; L -0.071; C 0.014; A -0.198; P -0.162; H 0.904; N -0.703; E 0.757; W -0.7; V -0.578; G -0.125; M 0.06; Y 0.142; S -0.528; I -0.375; Q 0.093
Q24: N -0.002; T -0.257; H -0.035; R -0.234; C -0.197; S 0.286; K 0.047; F -0.224; G -0.805; A -0.186; V -0.279; P -0.727; M -0.311; D 0.235; I -0.688; W -0.14; L -0.535; Y -0.44
E37: N 0.241; A -0.42; M -0.506; L -0.645; V 0.085; G -0.277; F -0.697; D 0.069; H -0.328; C -0.109; W -0.279; T -0.171; Y -0.345; I -0.445; P -0.903; S -0.527; R -0.22
E22: H -0.191; F -0.55; N -0.654; T -0.24; R -0.368; C -0.627; V -0.389; I -0.795; S 0.284; W -0.787; K -0.473; L -0.256; P -0.225; D -0.602; A 0.103; Y -0.565; Q 0.395
S33: W -0.366; F -0.291; Y -0.55; T -0.289; G 0.378; R 0.59; M -0.677; P -0.554; C -0.474; H -0.596; I -0.34; K 0.213; D 0.4; N 0.147; V -0.091; E -0.786; Q -0.111
I28: A -0.179; Y -0.546; R 0.338; V -0.264; C -0.546; W 0.025; F -0.443; G -0.245; L -0.284; H 0.116; T 0.163; K 0.638; D 0.056; M -0.065; N 0.043; Q 0.146; P 0.054; S 0.096

Source: the Human Domainome abundance scans (Beltran et al. 2025)
